{"source": "paper PMC5050915", "about": "“CYP79D enzymes contribute to jasmonic acid-induced formation of aldoximes and other nitrogenous volatiles in two Erythroxylum species” (BMC Plant Biology, 2016)", "key": {"[1]": {"target": "T1, CYP79D61 (Erythroxylum fischeri, UniProt A0A1D8QQQ4)", "T1 construct": "complete ORF in pESC-Leu2d, Saccharomyces cerevisiae WAT11 microsomes", "T1 sequence (A0A1D8QQQ4 1-531)": "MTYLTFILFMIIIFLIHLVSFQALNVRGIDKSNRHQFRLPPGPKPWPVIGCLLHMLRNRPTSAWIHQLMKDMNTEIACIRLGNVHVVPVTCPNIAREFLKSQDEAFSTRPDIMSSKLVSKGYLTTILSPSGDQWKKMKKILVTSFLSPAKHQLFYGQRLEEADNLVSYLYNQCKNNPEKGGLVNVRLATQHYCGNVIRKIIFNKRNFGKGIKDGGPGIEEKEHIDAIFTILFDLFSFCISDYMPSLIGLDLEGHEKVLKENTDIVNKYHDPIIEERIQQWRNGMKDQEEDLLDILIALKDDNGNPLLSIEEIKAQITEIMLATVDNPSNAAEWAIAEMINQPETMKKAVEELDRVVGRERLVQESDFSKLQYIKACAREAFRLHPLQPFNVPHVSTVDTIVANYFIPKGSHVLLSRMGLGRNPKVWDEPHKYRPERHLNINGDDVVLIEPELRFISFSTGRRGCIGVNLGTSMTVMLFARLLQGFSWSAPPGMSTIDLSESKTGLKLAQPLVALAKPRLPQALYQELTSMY", "assay": "aldoxime formation by recombinant yeast microsomes, LC-MS/MS", "format": "biochemical", "details": "1 mM substrate, 1 mM NADPH, 75 mM sodium phosphate pH 7.0, 25 °C"}, "[2]": {"substrate": "CC[C@H](C)[C@H](N)C(=O)O", "assay": "cells, lysate or membranes", "details": "1 mM NADPH, 75 mM sodium phosphate pH 7.0, 25 °C"}, "[3]": {"substrate": "N[C@@H](Cc1ccc(O)cc1)C(=O)O", "assay": "cells, lysate or membranes", "details": "1 mM NADPH, 75 mM sodium phosphate pH 7.0, 25 °C"}, "[4]": {"substrate": "N[C@@H](Cc1c[nH]c2ccccc12)C(=O)O", "assay": "aldoxime formation by recombinant yeast microsomes, LC-MS/MS", "format": "biochemical, Erythroxylum fischeri", "details": "1 mM NADPH, 75 mM sodium phosphate pH 7.0, 25 °C"}, "[5]": {"substrate": "N[C@@H](Cc1ccccc1)C(=O)O", "assay": "aldoxime formation by recombinant yeast microsomes, LC-MS/MS", "format": "biochemical, Erythroxylum fischeri", "details": "1 mM NADPH, 75 mM sodium phosphate pH 7.0, 25 °C"}, "[6]": {"substrate": "N[C@@H](Cc1c[nH]c2ccccc12)C(=O)O", "assay": "aldoxime formation by recombinant yeast microsomes, LC-MS/MS", "format": "biochemical, Erythroxylum coca", "details": "1 mM NADPH, 75 mM sodium phosphate pH 7.0, 25 °C"}, "[7]": {"substrate": "N[C@@H](Cc1ccccc1)C(=O)O", "assay": "aldoxime formation by recombinant yeast microsomes, LC-MS/MS", "format": "biochemical, Erythroxylum coca", "details": "1 mM NADPH, 75 mM sodium phosphate pH 7.0, 25 °C"}, "[8]": {"substrate": "N[C@@H](Cc1c[nH]c2ccccc12)C(=O)O", "assay": "aldoxime formation by recombinant yeast microsomes, LC-MS/MS", "format": "biochemical, Erythroxylum coca", "details": "1 mM NADPH, 75 mM sodium phosphate pH 7.0, 25 °C", "description": "aldoxime formation by recombinant yeast microsomes, LC-MS/MS on CYP79D63", "remark": "listed apart in the source"}}, "data": [{"molecule": "N[C@@H](Cc1ccccc1)C(=O)O", "note": "[L-Phe]", "values": [{"measurement": "aldoxime formation by recombinant yeast microsomes, LC-MS/MS", "setting": "[1]", "result": "CYP79D62, CYP79D60, and CYP79D61 accepted all tested amino acids"}]}, {"molecule": "CYP79D60 (Erythroxylum fischeri) (protein, complete ORF in pESC-Leu2d, Saccharomyces cerevisiae WAT11 microsomes) MTYLILILIMIITFLIHLVSFQALNVRGSDKSNRQQFQLPPGPKPWPVIGCLLQMLRNRPTSAWIHQLMKDMNTEIACIRLGNVHVIPVTCPNIAREFLKSQDEAFSSRPDFMSNKLVSKGYLTTALSPSGDQWKKMKKILVTSFLSPAKHKLFYGKRLEEADHLVSYLYNQCKNNPEKGGLVNVRLATQHYCGNVIRKIVFNKRNFGKGMEDGGPGIEEKEHIDALFTILFYLFSFCISDYMPSLIGLDLEGHEKVLRENTDIVNKYHDPIIEERIQQWRNGMKDQEEDLLDILIALKDDNGSPLLSIEEIKAQITEIMIAAVDNPSNAAEWAIAEMINQPETMKKAVEELDRAVGRERLVQESDFSKLKYIKACAREAFRLHPMEAFNVPHVSTVDTIVANYFIPKGSHVLLSRMGIGRNPKVWDEPHKYKPERHLKNGDDVVLTEPELRFISFSTGRRGCIGVNLGTSMTVMLFARLLQGFSWSAPPGMSTIDLSESKTGLKLAQPLVALAKPRLPQALYQELTSCINHS", "values": [{"measurement": "Km", "setting": "[2]", "result": "1280 ± 250", "unit": "µM"}, {"measurement": "Km", "setting": "[3]", "result": "6090 ± 1320", "unit": "µM"}, {"measurement": "Km", "setting": "[4]", "result": "2740 ± 110", "unit": "µM"}, {"measurement": "Km", "setting": "[5]", "result": "580 ± 50", "unit": "µM"}]}, {"molecule": "CYP79D62 (Erythroxylum coca) (protein, complete ORF in pESC-Leu2d, Saccharomyces cerevisiae WAT11 microsomes) MTYLILILIMIILVSFQALNVRCNDKSNRHQLQLPPGPKPWPVIGCLPQMLRNRPTFAWIHQLMKDMNTEIACIRLGNVHVIPVTCPNIAREFLKSQDEAFSSRPDFMSNKLVSKRYLTTALSPSGDQWKKMKKILVTSFLSPAKHQLFYGKRLEEADNLVSYLYGQCKNNPEKGGLVNVRLATRHYCGNVIRKIVFNKRNFGEGMKDGGPGIEEKEHIDAIFTILSYLFSFCISDYMPSLIGLDLEGHEKVLKENTDIVNKYHDPIIEERIQQWRNGMKDREEDLLDILIALKDDNGNPLLSIEEIKAQITEIILATVDNPSNAAEWAIAEMINQPEMMKKAVEELDRVVGRERLVQESDFVKLQYVKACAREAFRLHPLEPFNIPHVSTVDTTVANYFIPKGSHVLLSRMGLGRNPKVWDEPHKYKPERHLSNGDDVVLIEPELRFISFSTGRRGCIGVNLGTSMTVMLFARLLQGFSWSAPPGKLAINLNESKTGLALAQPLVALAKPRLPQALYQELTSCINHS", "values": [{"measurement": "Km", "setting": "[2]", "result": "3270 ± 420", "unit": "µM"}, {"measurement": "Km", "setting": "[3]", "result": "4990 ± 460", "unit": "µM"}, {"measurement": "Km", "setting": "[6]", "result": "1090 ± 40", "unit": "µM"}, {"measurement": "Km", "setting": "[7]", "result": "670 ± 70", "unit": "µM"}]}, {"molecule": "CYP79D63 (Erythroxylum coca) (protein, complete ORF in pESC-Leu2d, Saccharomyces cerevisiae WAT11 microsomes) MTYLILILIMIISFLIHLVSFQALNVRGSGKSNRHQFQLPPGPKPWPVIGCLPQMLRNRPTFAWIHQLMKDMNTEIACIRLGSIHVIPVTCPNIAREILKSQDEAFSSRPDFMSSTLVSRGYLATTLSPPGDQWKKMRKILVTSCLSPAKHRLFYRKRLEVADNLVSYLYSQCKDNPEKGGLVNVRLATQHYCGNVIRKIVFNKRNFGKGMKDGGPGIEEKEHIDALFTILFYVFSFCISDYMPSLIGLDLEGHEKVLKENTDIVNKYHDPIIQERIRQWRNGMKDQEEDLLDILIALKDNNGNPLLSIEEIKAQITEIVLASVDNPSNAAEWAIAEMINQPKIMKKAVEELDSVVGSERLVQESDFSKLQYVKACAREAFRLHPMQPFNVPHVSTMDTTIANYFIPKGSHVLLSRMRLGRNSKVWDEPHKYRPERHLSNGDDVLLIEPELRFISFSTGRRGCIGVNLGTSMTIMLFARLLQGFNWSAPPGKSAVDLNESKIGLTLAQPLVALAKPRLPQALYQELTSCINHS", "values": [{"measurement": "Km", "setting": "[8]", "result": "480 ± 50", "unit": "µM"}]}]}
